“Also recorded” adds a separate entry of the source.
Assays:
[1] = test system: Ki67+ proliferating cells in the JGA area; experiment: Ki67 immunofluorescence of low salt diet+captopril-treated mouse kidneys; type: in vivo
Description: FIG. 7. Ki67 (red nuclei) immunofluorescence of control (FIG. 7A-FIG. 7B) and low salt diet+captopril-treated mouse kidneys (FIG. 7C-FIG. 7D). In contrast to control untreated (FIG. 7A) and control+7-NI (FIG. 7B), a high density of Ki67+ proliferating cells are visible around the JGA interstitium in response to low salt diet+captopril treatment (FIG. 7C). […] Nuclei were labeled blue with DAPI. n=4 each group, §: P<0.05 versus ctrl, *: P<0.05 versus untreated low salt+captopril.
(§1) The increased density of NG2+ cells was 70% inhibited by the administration of the selective COX-2 inhibitor SC58236 (FIG. 6E).

[2] = test system: NG2+ cells in the JGA area; experiment: NG2 immunofluorescence of low salt diet+captopril-treated mouse kidneys; type: in vivo
Description: FIG. 6. NG2 (FIG. 6A, green) and renin (FIG. 6B, red) immunofluorescence of low salt diet+captopril-treated mouse kidneys. […] Nuclei were labeled blue with DAPI. n=4 each group, *: P<0.05.
as §1

[3] = test system: NG2-derived progenitor cells; experiment: Kidney tissue remodeling after 10 days of loop diuretic; type: in vivo; conditions: 10 days of treatment in an animal model
Description: FIG. 22. […] Increase in renal cortical mesenchyme-derived cell density (red), remodeling of the entire length of the glomerular (G) arterioles by NG2-derived progenitor cells within 10 days in response to loop diuretics.
The Inventors' initial experimental strategy to show proof-of-principle for this macula densa mechanism was to apply gold-standard whole body approaches to activate this new mechanism (e.g. dietary salt restriction and loop diuretics), which have been known for decades to improve kidney function. One example is the use of the loop diuretic furosemide, which blocks salt-sensing by MD cells and therefore is equivalent to the effects of low dietary salt intake as shown in FIGS. 6-7, 10). […] Furosemide and other loop diuretics have been in human clinical use for decades as efficient anti-hypertensive therapies. In addition to diuretics, the Inventors will explore other small molecules that may have specific MD cell targeting characteristics, and may activate the MD kidney repair program.

MMDD1 cells = experiment: GFP transfection with MMDD1 homing peptide+GFP cDNA complex; type: cell-based; conditions: overnight incubation, fluorescence microscopy
Description: FIG. 19. Selective targeting of MD cells with the MMDD1 homing peptide. […] Note the diffuse cytosolic GFP expression in MMDD1 cells indicating successful escape of the endosomes after fusion protein internalization.
In preliminary data, the Inventors identified a MMDD1 homing peptide based on phage-display, used it as targeting domain, and fused to a histidine-rich amphipathic peptide, optimized for DNA binding properties and gene delivery through endosomal escape. The fusiogenic peptide was synthesized:
The peptide was mixed with pcDNA3.1 GFP and incubated for 1 hour at room temperature. The solution was added to cultured MMDD1 cells (MD cell line), HEK293 cells and M-1 cells (collecting duct cell line), and incubated overnight at 37° C. in a humidified atmosphere (95% air and 5% CO2). Transfection was measured by fluorescence microscopy.

[4] = test system: glomerular endothelial cells; experiment: Serial MPM imaging of glomerular endothelial cells in Cdh5-Confetti mice; type: in vivo, mouse
Experimental: FIG. 15. Tracking the fate of the same glomerular endothelial cells over time in vivo at the single cell level. FIG. 15A-FIG. 15B: Serial MPM imaging of the same glomerulus (G) in the same Cdh5-Confetti mice was performed daily for one week. Endothelial cell distribution was registered using Z-sectioning of the glomerulus from top to bottom at each time point. Compared to baseline (FIG. 15A) when cells of all Confetti colors (membrane-bound CFP (blue), nuclear GFP (green), cytosolic YFP (yellow) and RFP (red)) were evenly distributed within the glomerulus, monochromatic glomeruli developed as early as 4 days (FIG. 15B) after endothelial injury (L-NAME treatment) indicating the presence of single precursor cell-derived colonies. Note the presence of cells in multiple colors in the afferent arteriole (AA, arrow) at baseline (FIG. 15A) including one GFP+ (green) and one RFP+ (magenta) cell at the terminal segment, and the identically colored intra-glomerular cell colonies (mostly green, some magenta) 4 days later (FIG. 15B). FIG. 15C: Schematic of the three directly adjacent JGA cell types (MD, JG renin, and AA EPCs) forming a functional syntitium via cell-to-cell crosstalk to remodel the glomerulus.

cultured GEnCs [5] = experiment: GEnC cell proliferation and cell migration (scratch opening assay); type: cell-based
[6] = BalbC Adriamycin mouse model of FSGS; type: in vivo
Description: FIG. 24. The robust protective effects of treatment with recombinant CCN1 or conditioned MD cell media in the BalbC Adriamycin mouse model of FSGS in vivo. FIG. 24A: Albuminuria (albumin/creatinine ratio, ACR) in the various control and treatment groups before ADR-induced kidney injury (baseline), two weeks later before the start of treatments, and 1 and 4 weeks after treatment with saline, recombinant CCN1, control or low salt-conditioned MD cell media. FIG. 24B-FIG. 24C: Trichrome staining of kidney histological sections.
In other work The Inventors tested the effects and therapeutic potential of the aforementioned novel biologicals. The robust protective effects of treatment with recombinant CCN1 or conditioned MD cell media in the BalbC Adriamycin mouse model of human-like focal segmental glomerulosclerosis (FSGS) in vivo is shown in FIG. 24. […] The development of albuminuria, the most important and clinically relevant functional readout of the failing kidneys was measured in the various control and experimental treatment groups before ADR-induced kidney injury (baseline), two weeks later before the start of treatments, and 1 and 4 weeks after treatment with saline, recombinant CCN1, control or low salt-conditioned MD cell media.

cultured GEnCs [7] = experiment: Endothelial tube formation assay (in vitro angiogenesis); type: cell-based; conditions: standard doses of CCN1 and VEGF
Experimental: FIG. 11. Robust effect of CCN1 on GEnCs: in vitro angiogenesis. Endothelial tube formation assays were performed using cultured GEnCs and standard doses of CCN1 and VEGF. *: P<0.05. Results are shown in FIG. 11A, FIG. 11B, FIG. 11C, FIG. 11D and FIG. 11E.
(§2) CCN1 had no effect on renin cell proliferation and migration (not shown).
In order to reproduce all of these MD-specific protective factors for therapeutic use, the Inventors utilized the existing MMDD1 in vitro cell culture model of MD cells that endogenously produce these factors. Mimicking the in vivo physiological activation of MD cells (low salt diet), the NaCl content of MD tissue culture medium was reduced by half as described earlier. […] The therapeutic strategy with this medium (illustrated in FIG. 21) is the same as above for CCN1, to inject it under the renal capsule for specific kidney targeting.

sclerotic glomeruli = experiment: ADR mouse model of GS, renal subcapsular treatment; type: in vivo
Description: FIG. 17. The effects of CCN1 and MMDD1 conditioned media treatment in the ADR mouse model of GS. FIG. 17A: illustration of study design. FIG. 17B: Effects of CCN1 and MMDD1 media on the number of Ki67+ cells (IF, red) per field. FIG. 17C: Effects of CCN1 and MMDD1 media on the number of p57+ podocytes (IF, red) per glomerulus. Green is autofluorescence for visualization of tissue anatomy.
In other preliminary experiments, mouse (ADR nephropathy resembling human-like FSGS) and rat (PAN-induced FSGS) models of CKD were established. Single renal subcapsular treatment with exogenous recombinant CCN1 was performed at a time point (two weeks after second ADR dose in mice, or after the second dose of PAN in rats) when severe and persistent glomerular pathology was confirmed (FIG. 17A), with subsequent two weeks' follow-up. Animals were placed in metabolic cages weekly for urine collection, and tissues (kidney, aorta, heart, brain, blood) harvested 4 weeks (after first ADR dose in mice), or 2 months (after first PAN dose in rats).
Since the main problem in kidney disease appears to be reduced or absent production of CCN1 by macula densa cells, the Inventors can supplement recombinant CCN1 peptide delivered specifically into the renal parenchyma. In preliminary studies illustrated in FIG. 17, the Inventors used subcapsular injections of recombinant CCN1. However, this is invasive procedure, which would have limited clinical use. A much better non-invasive approach the Inventors are currently testing is to give systemic iv injection of recombinant CCN1 targeted specifically to the kidney blood supply. This is performed by conjugating recombinant CCN1 to a glomerulus homing peptide. The promise and therapeutic benefit of this approach is shown in FIG. 17 in a pre-clinical animal model of CKD.
In order to reproduce all of these MD-specific protective factors for therapeutic use, the Inventors utilized the existing MMDD1 in vitro cell culture model of MD cells that endogenously produce these factors. […]

renin cell = experiment: Renin cell proliferation and migration; type: cell-based; conditions: not shown
Description: as §2

[8] = low salt diet+captopril treatment for one week

For O=[N+]([O-])c1cccc2cn[nH]c12 [7-NI], the “proliferation of NG2+ cells” value [1, 8] was “completely abolished” and the “number of Ki67+ cells in the JGA area” value ([1]; low salt diet+captopril-treated, n=4 each group, P<0.05 versus untreated low salt+captopril) was “significantly reduced”.

With NS(=O)(=O)c1ccc(-n2nc(C(F)(F)F)cc2-c2ccc(Cl)cc2)cc1 [SC58236] the “inhibition of the increased density of NG2+ cells” value [2, 8] was 70% and the “number of NG2+ cells in the JGA area” value ([2]; low salt diet+captopril-treated, n=4 each group, P<0.05) was “significantly reduced”.

For NS(=O)(=O)c1cc(C(=O)O)c(NCc2ccco2)cc1Cl [furosemide], the “kidney tissue (vascular and glomerular) remodeling” value [3] was “significant kidney tissue remodeling; also recorded: Robust vascular and glomerular remodeling”.

With “NH2-ACFNDSDMLCGGGKKHLLAHALHLLALLALHLAHALAHLKKA-NH2 (H-ACFNDSDMLCGGGKKHLLAHALHLLALLALHLAHALAHLKKA-NH2; cysteine pairing not given here) [MMDD1 homing peptide+GFP cDNA complex]” the “transfection with GFP” value (MMDD1 cells) was “successful transfection”.

B1: CCN1: recombinant CCN family member 1, secreted matricellular protein, angiogenic inducer (protein, UniProt O00622 25-381, looked up)
CCN family member 1: TCPAACHCPLEAPKCAPGVGLVRDGCGCCKVCAKQLNEDCSKTQPCDHTKGLECNFGASSTALKGICRAQSEGRPCEYNSRIYQNGESFQPNCKHQCTCIDGAVGCIPLCPQELSLPNLGCPNPRLVKVTGQCCEEWVCDEDSIKDPMEDQDGLLGKELGFDASEVELTRNNELIAVGKGSSLKRLPVFGMEPRILYNPLQGQKCIVQTTSWSQCSKTCGTGISTRVTNDNPECRLVKETRICEVRPCGQPVYSSLKKGKKCSKTKKSPEPVRFTYAGCLSVKKYRPKYCGSCVDGRCCTPQLTRTVKMRFRCEDGETFSKNVMMIQSCKCNYNCPHANEAAFPFYRLFNDIHKFRD
For B1, the “Confetti cell tracing units in glomeruli” value ([4]; subcapsular treatment for one week) was “high number of Confetti cells formed monochromatic tracing units”, the “remodeling of the glomerular endothelial layer” value ([4]; within a few days) was “rapid and robust remodeling” and the “effect on cell proliferation and migration” value (cultured GEnCs [5]; added to the media of cultured GEnCs) was “robust dose-dependent effect”. For the same molecule, the “effects on GEnCs in presence of blocking antibodies for integrins αvβ3 and VEGF receptor blockers” value (cultured GEnCs [5]; not shown) was “almost completely abolished”, the “albuminuria (albumin/creatinine ratio, ACR)” value ([6]; treatment for 5 consecutive days started two weeks after 8 mg/kg ADR iv, 1 and 4 weeks after treatment) was “robust decline” and the “glomerulosclerosis and tissue fibrosis (trichrome kidney histology)” value ([6]; versus control saline-treated) was “improved pathology”. For the same molecule, the “in vitro angiogenesis (tube formation assay) compared with VEGF” value (cultured GEnCs [7]) was “more effective”, the proteinuria (sclerotic glomeruli; preliminary mouse and rat studies of GS) was “diminished proteinuria” and the “increase in Ki67+ proliferating cells in glomeruli” value (sclerotic glomeruli; single renal subcapsular treatment, two weeks' follow-up) was > 20 fold. The “number of p57+ podocytes” value (sclerotic glomeruli; single treatment, treated versus control groups) was “significantly increased” and the “effect on renin cell proliferation and migration” value (renin cell) was “no effect”.

Source: US11318209B2, “Targeting macula densa cells as a new therapeutic approach for kidney disease” (MACULA DENSA CELL LLC, priority 2016, dated 2022)
